The values that follow come from US20250186597A1, “TARGETED IMMUNE ACTIVATION WITH IL-18 IMMUNOCYTOKINES” (BRIGHT PEAK THERAPEUTICS AG, priority 2023, published 2025).

One assay concerns the target T1, human IL-18BP (Homo sapiens, UniProt O95998).
T1 construct: His
T1 sequence (O95998 31-194): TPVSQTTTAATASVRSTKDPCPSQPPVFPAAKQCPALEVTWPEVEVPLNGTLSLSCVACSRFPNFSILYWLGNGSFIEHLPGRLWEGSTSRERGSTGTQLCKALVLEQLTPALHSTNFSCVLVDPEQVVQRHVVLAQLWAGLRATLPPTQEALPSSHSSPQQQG
Nature of the assay: IL-18BP binding alphaLISA assay (Example 4, used in Example 22B). The settings on record: IL-18BP AlphaLISA. As for the experimental part: A human IL-18BP AlphaLISA Assay Kit is used to determine the binding affinity of each immunocytokine and IL-18 variant for IL-18BP, which detected the presence of free form IL-18BP.
Sixteen three-fold serial dilutions of IL-18 analytes are prepared in aMEM medium supplemented with 20% FCS, Glutamax, and 25 µM β-mercaptoethanol in the presence of 5 ng/mL of His-tagged human IL-18BP. Final IL-18 analytes concentration range from 2778 nM to […].
After 1 hr incubation at room temperature, free IL-18BP levels are measured using a […]. In a 384 well OPTIplate, 5 μL of 5× Anti-IL-18BP acceptor beads are added to 7.5 μL of an IL-18/IL-18BP mix. After 30 min incubation at room temperature with shaking, 5 μL of biotinylated Anti-IL-18BP antibodies are added to each well. The plate is incubated further for 1 hr at room temperature. Under subdued light, 12.5 μL of 2× streptavidin (SA) donor beads are pipetted into each well, and the wells are incubated with shaking for an additional 30 min at room temperature. The AlphaLisa signal is then measured on an Enspire plate reader with 680 and 615 nm as excitation and emission wavelengths, respectively. The dissociation constant (KD) is calculated based on a variable slope, four parameter analysis using GraphPad PRISM software.
An IL-18 binding protein AiphaLISA experiment substantially as described in Example 4 was performed on IL-18 polypeptide which can be incorporated into immunocytokine compositions as provided herein to assess ability to bind to IL-181BP. It is expected that the IL-18 polypeptides provided below would behave analogously to C086 (SEQ ID NO: 30) when incorporated into an immunocytokine composition as those otherwise provided herein.

For assay [1], the system named is NK-92 cells. In words: IFNγ induction cellular assay in NK-92 cells (Example 4, used in Example 22C). The class given is cell-based, human. Conditions: IFNg stimulation in NK92 cells. As for the experimental part:
The ability of immunocytokines and IL-18 polypeptides provided herein are assessed for ability to induce IFN[…] in a cellular assay according to the protocol below.
The NK cell line NK-92 derived from a patient with lymphoma (ATCC® CRL-2407™) is cultured in aMEM medium supplemented with 20% FCS, Glutamax, 25 µM B-mercaptoethanol, and 100 IU/mL of recombinant human IL-2.
On the day of experiment, cells are harvested and washed with aMEM medium without IL-2 and containing 1 ng/mL of recombinant human IL-12. After counting, cells are seeded at 100,000 cells/well in a 384 well titer plate and incubated at 37° C./5% CO2. Sixteen 4-fold serial dilutions of IL-18 analytes are prepared in aMEM medium, and 1 ng/mL of IL-12 were added to the NK-92 cells. Final IL-18 analyte concentrations range from 56 nM to 5×10^−5 pM.
After incubating the cells for 16-20 hr at 37° C./5% CO2, 5 μL of supernatant is carefully transferred to a 384 microwell OptiPlate. IFNγ levels are measured using a human IFNγ AlphaLISA Assay Kit. Briefly, 10 μL of 2.5× AlphaLISA Anti-IFNγ acceptor beads and biotinylated antibody anti-IFNγ mix are added to the 5 μL of NK-92 supernatants. The mixtures are incubated for 1 hr at room temperature with shaking. Under subdued light, 2.5 μL of 2× streptavidin (SA) donor beads are pipetted into each well, and the wells are incubated for 30 min at room temperature with shaking. AlphaLISA signals are then measured on an EnSpire™ plate reader using 680 nm and 615 nm as excitation and emission wavelengths, respectively. Half maximal effective concentrations (EC50) are calculated based on a variable slope and four parameter analysis using GraphPad PRISM software.
(§1) The experiments described in Example 4 for determination of IFNg stimulation in NK92 cells (and inhibition by IL-18 BP) were performed substantially as described on IL-18 polypeptides in order to assess their activities and their suitability for incorporation into immunocytokine compositions. It is expected that the IL-18 polypeptides provided below would behave analagously to C086 (SEQ ID NO: 30) when incorporated into an immunocytokine composition as those otherwise provided herein.

For assay [2], the system named is NK-92 cells. Nature of the assay: IL-18 binding protein inhibition cellular assay in NK-92 cells (Example 4, used in Example 22C). The class given is cell-based, human. Conditions: inhibition by IL-18BP of IFNg stimulation in NK92 cells. As for the experimental part: The NK cell line NK-92 derived from a patient with lymphoma (ATCC® CRL-2407™) is cultured in aMEM medium supplemented with 20% FCS-Glutamax, 25 µM B-mercaptoethanol, and 100 IU/mL of recombinant human IL-2.
On the day of experiment, cells are harvested and washed with aMEM medium without IL-2 and containing 1 ng/mL of recombinant human IL-12. After counting, the cells are seeded at 100,000 cells/well in a 384 well titer plate and incubated at 37° C./5% CO2. Sixteen 2-fold serial dilutions of Fc-fused human IL-18 binding protein isoform a (IL-18BPa) are prepared in aMEM medium. 1 ng/mL of IL-12 containing 2 nM of each IL-18 polypeptide variant is added to the NK-92 cells. The final IL-18 analyte concentration is 1 nM, and the final IL-18BPa concentration ranged from 566 nM to […].
After incubating the cells for 16-20 hr at 37° C./5% CO2, 5 μL of the supernatant is carefully transferred to a 384 microwell OptiPlate. IFNγ levels are measured using a human IFNγ AlphaLISA Assay Kit. Briefly, 10 μL of 2.5× AlphaLISA anti-IFNγ acceptor beads and biotinylated antibody anti-IFNγ mix are added to 5 μL of NK-92 supernatants. The mixtures are incubated for 1 hr at room temperature with shaking. Under subdued light, 2.5 μL of 2×SA donor beads are pipetted in each well and incubated for 30 min at room temperature with shaking. AlphaLISA signals are then measured on an EnSpire™ plate reader using 680 nm and 615 nm as excitation and emission wavelengths, respectively. Half maximal inhibitory concentrations (IC50) are calculated based on a variable slope and four parameter analysis using GraphPad PRISM software.
as §1

B1: SEQ ID NO: 68: IL-18 polypeptide: V11I, C38A, M51G, K53A, C76A, C127A (protein)
chain: YFGKLESKLSIIRNLNDQVLFIDQGNRPLFEDMTDSDARDNAPRTIFIISGYADSQPRGMAVTISVKCEKISTLSAENKIISFKEMNPPDNIKDTKSDIIFFQRSVPGHDNKMQFESSSYEGYFLAAEKERDLFKLILKKEDELGDRSIMFTVQNED
In the assay with human IL-18BP, B1 yielded a Kd of 373 nM. Moreover, the midpoint of the response in the assay on NK-92 cells [1], the EC50, lay at 0.037 nM. For the same molecule, in the assay on NK-92 cells [2], the IC50 came to 733 nM.

B2: C155: IL-18 polypeptide: V11I, C38A, D40A, K53A, C76A, C127A (protein)
chain: YFGKLESKLSIIRNLNDQVLFIDQGNRPLFEDMTDSDARANAPRTIFIISMYADSQPRGMAVTISVKCEKISTLSAENKIISFKEMNPPDNIKDTKSDIIFFQRSVPGHDNKMQFESSSYEGYFLAAEKERDLFKLILKKEDELGDRSIMFTVQNED
B2 yielded a Kd with human IL-18BP of 0.74 nM. In the assay on NK-92 cells [1], this molecule gave an EC50 of 0.067 nM. In addition, in the assay with NK-92 cells [2], the IC50 amounted to 3.23 nM.

B3: C148: IL-18 polypeptide: F2A, V11I, C38A, K53A, C76A, C127A (protein)
chain: YAGKLESKLSIIRNLNDQVLFIDQGNRPLFEDMTDSDARDNAPRTIFIISMYADSQPRGMAVTISVKCEKISTLSAENKIISFKEMNPPDNIKDTKSDIIFFQRSVPGHDNKMQFESSSYEGYFLAAEKERDLFKLILKKEDELGDRSIMFTVQNED
As to B3, binding with human IL-18BP was characterised by a dissociation constant (Kd) of 57.2 nM. In the assay on NK-92 cells [1], this molecule returned an EC50 of 0.256 nM. This molecule returned a half-inhibitory concentration (IC50) in the assay with NK-92 cells [2] of 5.05 nM.

B4: C153: IL-18 polypeptide: V11I, D37A, C38A, K53A, C76A, C127A (protein)
chain: YFGKLESKLSIIRNLNDQVLFIDQGNRPLFEDMTDSAARDNAPRTIFIISMYADSQPRGMAVTISVKCEKISTLSAENKIISFKEMNPPDNIKDTKSDIIFFQRSVPGHDNKMQFESSSYEGYFLAAEKERDLFKLILKKEDELGDRSIMFTVQNED
B4: binding with human IL-18BP was characterised by a dissociation constant (Kd) of 4.55 nM. The molecule also came in with an EC50 in the assay with NK-92 cells [1] of 0.175 nM. The same molecule yielded an IC50 with NK-92 cells [2] of 2.22 nM.

B5: C151: IL-18 polypeptide: V11I, D35A, C38A, K53A, C76A, C127A (protein)
chain: YFGKLESKLSIIRNLNDQVLFIDQGNRPLFEDMTASDARDNAPRTIFIISMYADSQPRGMAVTISVKCEKISTLSAENKIISFKEMNPPDNIKDTKSDIIFFQRSVPGHDNKMQFESSSYEGYFLAAEKERDLFKLILKKEDELGDRSIMFTVQNED
In the case of B5, the affinity with human IL-18BP, expressed as Kd, was 2.88 nM. Besides, the EC50 in the assay on NK-92 cells [1] came out at 0.061 nM. The molecule further gave an IC50 in the assay with NK-92 cells [2] of 3.62 nM.

B6: C156: IL-18 polypeptide: V11I, C38A, N41A, K53A, C76A, C127A (protein)
chain: YFGKLESKLSIIRNLNDQVLFIDQGNRPLFEDMTDSDARDAAPRTIFIISMYADSQPRGMAVTISVKCEKISTLSAENKIISFKEMNPPDNIKDTKSDIIFFQRSVPGHDNKMQFESSSYEGYFLAAEKERDLFKLILKKEDELGDRSIMFTVQNED
Consider B6, for which, in the assay with human IL-18BP, the Kd stood at 18.5 nM. For the same molecule, the EC50 with NK-92 cells [1] amounted to 0.558 nM. In addition, the IC50 with NK-92 cells [2] worked out at 0.681 nM.

B7: C154: IL-18 polypeptide: V11I, E31A, D37A, C38A, K53A, C76A, C127A (protein)
chain: YFGKLESKLSIIRNLNDQVLFIDQGNRPLFADMTDSAARDNAPRTIFIISMYADSQPRGMAVTISVKCEKISTLSAENKIISFKEMNPPDNIKDTKSDIIFFQRSVPGHDNKMQFESSSYEGYFLAAEKERDLFKLILKKEDELGDRSIMFTVQNED
B7: the affinity with human IL-18BP, expressed as Kd, was 2.12 nM. Also, in the assay with NK-92 cells [1], the EC50 was found to be 0.062 nM. Besides, the IC50 in the assay on NK-92 cells [2] was 3.71 nM.

B8: C152: IL-18 polypeptide: V11I, S36A, C38A, K53A, C76A, C127A (protein)
chain: YFGKLESKLSIIRNLNDQVLFIDQGNRPLFEDMTDADARDNAPRTIFIISMYADSQPRGMAVTISVKCEKISTLSAENKIISFKEMNPPDNIKDTKSDIIFFQRSVPGHDNKMQFESSSYEGYFLAAEKERDLFKLILKKEDELGDRSIMFTVQNED
B8 displayed a dissociation constant (Kd) with human IL-18BP of 1.12 nM. Also, the EC50 in the assay with NK-92 cells [1] came to 0.033 nM. In addition, the IC50 with NK-92 cells [2] came to 7.85 nM.

B9: C150: IL-18 polypeptide: V11I, T34A, C38A, K53A, C76A, C127A (protein)
chain: YFGKLESKLSIIRNLNDQVLFIDQGNRPLFEDMADSDARDNAPRTIFIISMYADSQPRGMAVTISVKCEKISTLSAENKIISFKEMNPPDNIKDTKSDIIFFQRSVPGHDNKMQFESSSYEGYFLAAEKERDLFKLILKKEDELGDRSIMFTVQNED
With B9, the Kd in the assay with human IL-18BP came out at 1.24 nM. Further, the EC50 in the assay with NK-92 cells [1] was 0.015 nM. Also, the IC50 with NK-92 cells [2] is 21.3 nM.

B10: C149: IL-18 polypeptide: V11I, E31A, C38A, K53A, C76A, C127A (protein)
chain: YFGKLESKLSIIRNLNDQVLFIDQGNRPLFADMTDSDARDNAPRTIFIISMYADSQPRGMAVTISVKCEKISTLSAENKIISFKEMNPPDNIKDTKSDIIFFQRSVPGHDNKMQFESSSYEGYFLAAEKERDLFKLILKKEDELGDRSIMFTVQNED
B10: in the assay with human IL-18BP, the affinity, expressed as Kd, was 0.64 nM. In the assay on NK-92 cells [1], the EC50 was determined as 0.187 nM. The molecule also showed an IC50 in the assay with NK-92 cells [2] of 1.17 nM.

B11: C147: IL-18 polypeptide: V11I, C38A, K53A, D54A, C76A, C127A (protein)
chain: YFGKLESKLSIIRNLNDQVLFIDQGNRPLFEDMTDSDARDNAPRTIFIISMYAASQPRGMAVTISVKCEKISTLSAENKIISFKEMNPPDNIKDTKSDIIFFQRSVPGHDNKMQFESSSYEGYFLAAEKERDLFKLILKKEDELGDRSIMFTVQNED
In the assay with human IL-18BP, B11 returned a Kd of 25.8 nM. This molecule showed an EC50 in the assay with NK-92 cells [1] of 0.079 nM. Further, the IC50 in the assay on NK-92 cells [2] came out at 47.6 nM.
